Test [1] addresses T1, CD24 (human, UniProt P25063 27-59).
T1 construct: whole, on cells; GPI-anchored cell surface protein; also called human CD24; hCD24
T1 chain (looked up): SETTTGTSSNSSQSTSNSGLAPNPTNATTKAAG
Nature of the test: flow cytometry on MCF-7 cells that carry both CD24 and CD47; the two targets are not resolved. As to the method: (§1) Cells were washed with cold PBS twice, and then incubated with 100 μl FITC-conjugated secondary antibody against human IgG-Fc (Cat #F9512, Sigma) for 45 min. Cells were washed twice and re-suspended in 200 μl PBS. Then, the cells were subject to FACS analysis using a flow cytometer (Merck Millipore, Guava® easyCyte 5HT).
On the technique in general: Flow cytometry measures light scatter and fluorescence of single cells or particles in a stream.

The target of test [2] is T2, CD47 (human, UniProt Q08722 19-323).
T2 construct: whole, on cells; also called CD47s on Jurkat cells; CD47s on MCF-7 human breast cancer cells
Described as above. As to the method:
as §1

Test [3] has as its target T2, CD47. Nature of the test: flow cytometry on Jurkat cells (naturally expressing CD47), FITC anti-human IgG-Fc. As to the method:
as §1

In test [4] the target is T1, CD24. Kind of test: flow cytometry on CD24+CD47+ MCF-7 cells; positive control. As to the method: as §1

T2 sequence (Q08722 19-323): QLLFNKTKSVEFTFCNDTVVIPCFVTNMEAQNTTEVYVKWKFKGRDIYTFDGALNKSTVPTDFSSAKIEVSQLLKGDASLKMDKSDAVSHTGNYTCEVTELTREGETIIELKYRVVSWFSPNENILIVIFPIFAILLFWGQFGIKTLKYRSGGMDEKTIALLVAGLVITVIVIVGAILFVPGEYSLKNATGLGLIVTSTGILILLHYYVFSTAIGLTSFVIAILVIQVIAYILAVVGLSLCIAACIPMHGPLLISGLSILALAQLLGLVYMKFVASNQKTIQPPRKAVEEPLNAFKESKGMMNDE

B1: IMM4702H (bispecific antibody, human IgG1, kappa)
heavy: DVQLQESGPGLVKPSETLSLTCTVSGYSITSGYSWHWIRQPPGKGLEWIGYIHYSGSTKYNPSLKSRVTISVDTSKNQFSLKLSSVTAADTAVYYCARGADYALDYWGQRTSVTVSSASTKGPSVFPLAPSSKSTSGGTAALGCLVKDYFPEPVTVSWNSGALTSGVHTFPAVLQSSGLYSLSSVVTVPSSSLGTQTYICNVNHKPSNTKVDKRVEPKSCDKTHTCPPCPAPELLGGPSVFLFPPKPKDTLMISRTPEVTCVVVDVSHEDPEVKFNWYVDGVEVHNAKTKPREEQYNATYRVVSVLTVLHQDWLNGKEYKCKVSNKALPAPIAATISKAKGQPREPQVYTLPPSREEMTKNQVSLTCLVKGFYPSDIAVEWESNGQPENNYKTTPPVLDSDGSFFLYSKLTVDKSRWQQGNVFSCSVMHEALHNHYTQKSLSLSPGK
light: not shown
notes: Mutated SIRPαD1 linked via (G4S)3 to the N-terminus of each light chain of IMM47H (humanized VH and VL); also called recombinant fusion protein IMM4702H; IMM47H's heavy chain + SIRPαD1-linker-IMM47H's light chain
Regarding B1, the binding result in the test with CD24 [1] and with CD47 [2] was “binds” in each case.

B2: IMM4701 (bispecific antibody, human IgG1, kappa)
heavy: not shown
light: DIQMTQSPSSLSASVGDRVTITCKSSQSLLYSSNQKNYLAWYQQKPGKAPKLLIYWASTRESGVPSRFSGSGSGTDFTLTISSLQPEDFATYYCQQNFIYPLTFGGGTKVELKRTVAAPSVFIFPPSDEQLKSGTASVVCLLNNFYPREAKVQWKVDNALQSGNSQESVTEQDSKDSTYSLSSTLTLSKADYEKHKVYACEVTHQGLSSPVTKSFNRGEC
notes: Mutated SIRPαD1 linked via (G4S)3 to the N-terminus of each heavy chain of the anti-CD24 IgG IMM47 (mouse VH, humanized VL); also called recombinant fusion protein IMM4701; SIRPαD1-linker-IMM47's heavy chain + IMM47's light chain
In the case of B2, the binding result in the test with CD47 [3] and with CD24 [1] was “binds” each time.

B3: IMM47H (antibody, human IgG1, kappa, V domains shown)
VH: DVQLQESGPGLVKPSETLSLTCTVSGYSITSGYSWHWIRQPPGKGLEWIGYIHYSGSTKYNPSLKSRVTISVDTSKNQFSLKLSSVTAADTAVYYCARGADYALDYWGQRTSVTVSS
VL: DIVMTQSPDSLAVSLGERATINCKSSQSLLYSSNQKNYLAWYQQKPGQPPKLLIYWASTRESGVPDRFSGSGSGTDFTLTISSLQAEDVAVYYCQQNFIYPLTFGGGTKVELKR
notes: IgG antibody with humanized VH and humanized VL; also called anti-CD24 antibody IMM47H
In the case of B3, the binding result in the test with CD24 [4] is “binds”.

B4: IMM4702C (bispecific antibody, human IgG1, kappa)
heavy: DVQLQESGPDLVKPSQSLSLTCTVTGYSITSGYSWHWIRQFPGNKLEWMGYIHYSGSTKYNPSLKSRISITRDTSKNQFFLQLNSVTTEDTATYFCARGADYALDYWGQRTSVTVSSASTKGPSVFPLAPSSKSTSGGTAALGCLVKDYFPEPVTVSWNSGALTSGVHTFPAVLQSSGLYSLSSVVTVPSSSLGTQTYICNVNHKPSNTKVDKRVEPKSCDKTHTCPPCPAPELLGGPSVFLFPPKPKDTLMISRTPEVTCVVVDVSHEDPEVKFNWYVDGVEVHNAKTKPREEQYNATYRVVSVLTVLHQDWLNGKEYKCKVSNKALPAPIAATISKAKGQPREPQVYTLPPSREEMTKNQVSLTCLVKGFYPSDIAVEWESNGQPENNYKTTPPVLDSDGSFFLYSKLTVDKSRWQQGNVFSCSVMHEALHNHYTQKSLSLSPGK
light: not shown
notes: Mutated SIRPαD1 linked via (G4S)3 to the N-terminus of each light chain of IMM47C; also called recombinant fusion protein IMM4702C; IMM47C's heavy chain + SIRPαD1-linker-IMM47C's light chain
Take B4: the binding result with CD24 [1] and with CD47 [2] was “binds” each time.

These data come from US20230114491A1 (IMMUNEONCO BIOPHARMACEUTICALS SHANGHAI, published 2023).
